The values below come from US20080058636A1, “METHODS OF MYOCARDIAL IMAGING” (Epix Pharmaceuticals, Inc., priority 2005, published 2008).

The target in test [1] is human collagen type I (acid soluble, extracted from placenta, Sigma C7774) (human) (UniProt P02452). The test is described as follows: dried collagen assay, 5 uM each.
Test [2] deals with rat collagen (acid soluble, type I, rat tail, Upstate 08-115) (rat) (UniProt P02454). In words: dried collagen assay, 5 uM each.

Bridge positions count the residues as written; N and C are the ends. GdDTPA‑thiourea = GdT is GdDTPA-thiourea (Gd-DTPA chelate attached through a thiourea)

human collagen type I (acid soluble, extracted from placenta, Sigma C7774) (human), sequence (P02452 162-1218 limits assumed, chain 1 of 2): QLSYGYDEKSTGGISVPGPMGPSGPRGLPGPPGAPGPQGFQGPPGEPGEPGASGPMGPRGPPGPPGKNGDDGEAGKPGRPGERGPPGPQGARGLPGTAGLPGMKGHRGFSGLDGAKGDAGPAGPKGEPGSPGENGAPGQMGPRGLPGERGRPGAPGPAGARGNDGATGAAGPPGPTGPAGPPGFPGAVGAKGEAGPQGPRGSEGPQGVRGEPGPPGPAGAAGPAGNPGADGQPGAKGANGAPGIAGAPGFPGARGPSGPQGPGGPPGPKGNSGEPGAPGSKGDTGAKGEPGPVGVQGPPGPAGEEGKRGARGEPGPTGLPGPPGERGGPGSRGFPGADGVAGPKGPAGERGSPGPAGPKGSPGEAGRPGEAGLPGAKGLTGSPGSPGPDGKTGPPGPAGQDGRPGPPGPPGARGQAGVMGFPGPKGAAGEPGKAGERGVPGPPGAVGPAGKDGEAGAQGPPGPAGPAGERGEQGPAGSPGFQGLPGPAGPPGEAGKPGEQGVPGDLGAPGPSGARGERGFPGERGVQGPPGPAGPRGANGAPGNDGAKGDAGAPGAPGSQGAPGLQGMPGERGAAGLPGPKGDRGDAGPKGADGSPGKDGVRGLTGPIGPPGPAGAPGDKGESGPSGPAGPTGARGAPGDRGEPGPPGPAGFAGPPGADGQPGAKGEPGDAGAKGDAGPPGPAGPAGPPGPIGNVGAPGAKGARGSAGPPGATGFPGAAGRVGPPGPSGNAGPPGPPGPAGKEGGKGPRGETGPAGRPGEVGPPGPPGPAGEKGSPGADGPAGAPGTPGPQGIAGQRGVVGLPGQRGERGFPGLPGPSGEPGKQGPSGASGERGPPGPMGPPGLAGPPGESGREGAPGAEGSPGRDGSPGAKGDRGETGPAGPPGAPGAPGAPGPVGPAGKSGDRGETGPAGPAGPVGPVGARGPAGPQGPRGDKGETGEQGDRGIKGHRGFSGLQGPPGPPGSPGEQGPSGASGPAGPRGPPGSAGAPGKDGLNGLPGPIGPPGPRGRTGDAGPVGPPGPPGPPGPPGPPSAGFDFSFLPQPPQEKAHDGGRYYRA
human collagen type I (acid soluble, extracted from placenta, Sigma C7774) (human), sequence (P08123 80-1119 limits assumed, chain 2 of 2, further chain): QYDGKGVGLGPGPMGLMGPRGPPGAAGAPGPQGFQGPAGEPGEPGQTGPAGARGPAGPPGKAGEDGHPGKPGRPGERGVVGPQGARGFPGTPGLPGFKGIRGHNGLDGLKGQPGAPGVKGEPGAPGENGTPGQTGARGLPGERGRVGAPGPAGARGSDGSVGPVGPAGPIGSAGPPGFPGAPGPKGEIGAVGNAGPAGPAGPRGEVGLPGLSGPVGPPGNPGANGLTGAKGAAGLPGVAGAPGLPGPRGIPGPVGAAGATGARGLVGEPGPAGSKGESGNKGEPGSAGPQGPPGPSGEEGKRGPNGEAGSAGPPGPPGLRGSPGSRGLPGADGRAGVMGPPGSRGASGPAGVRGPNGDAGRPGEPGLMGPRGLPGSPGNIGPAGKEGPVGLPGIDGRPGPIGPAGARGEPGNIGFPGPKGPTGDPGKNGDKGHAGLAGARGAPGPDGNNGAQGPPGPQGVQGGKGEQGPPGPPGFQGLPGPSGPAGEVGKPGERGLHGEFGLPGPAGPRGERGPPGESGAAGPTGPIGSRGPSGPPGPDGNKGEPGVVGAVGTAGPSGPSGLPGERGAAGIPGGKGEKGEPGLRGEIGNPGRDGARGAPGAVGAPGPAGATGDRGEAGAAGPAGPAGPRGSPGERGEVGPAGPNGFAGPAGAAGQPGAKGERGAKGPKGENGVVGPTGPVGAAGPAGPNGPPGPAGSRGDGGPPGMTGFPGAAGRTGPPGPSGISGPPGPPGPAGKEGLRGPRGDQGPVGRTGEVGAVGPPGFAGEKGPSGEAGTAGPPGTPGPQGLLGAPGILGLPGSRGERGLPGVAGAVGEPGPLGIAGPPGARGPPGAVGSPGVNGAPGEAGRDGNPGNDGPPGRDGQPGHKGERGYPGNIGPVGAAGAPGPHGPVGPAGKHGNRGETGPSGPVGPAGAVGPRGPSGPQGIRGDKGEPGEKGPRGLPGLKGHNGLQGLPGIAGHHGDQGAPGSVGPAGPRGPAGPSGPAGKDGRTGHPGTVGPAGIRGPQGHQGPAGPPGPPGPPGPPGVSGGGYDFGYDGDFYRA
rat collagen (acid soluble, type I, rat tail, Upstate 08-115) (rat), sequence (P02454 152-1207, chain 1 of 2): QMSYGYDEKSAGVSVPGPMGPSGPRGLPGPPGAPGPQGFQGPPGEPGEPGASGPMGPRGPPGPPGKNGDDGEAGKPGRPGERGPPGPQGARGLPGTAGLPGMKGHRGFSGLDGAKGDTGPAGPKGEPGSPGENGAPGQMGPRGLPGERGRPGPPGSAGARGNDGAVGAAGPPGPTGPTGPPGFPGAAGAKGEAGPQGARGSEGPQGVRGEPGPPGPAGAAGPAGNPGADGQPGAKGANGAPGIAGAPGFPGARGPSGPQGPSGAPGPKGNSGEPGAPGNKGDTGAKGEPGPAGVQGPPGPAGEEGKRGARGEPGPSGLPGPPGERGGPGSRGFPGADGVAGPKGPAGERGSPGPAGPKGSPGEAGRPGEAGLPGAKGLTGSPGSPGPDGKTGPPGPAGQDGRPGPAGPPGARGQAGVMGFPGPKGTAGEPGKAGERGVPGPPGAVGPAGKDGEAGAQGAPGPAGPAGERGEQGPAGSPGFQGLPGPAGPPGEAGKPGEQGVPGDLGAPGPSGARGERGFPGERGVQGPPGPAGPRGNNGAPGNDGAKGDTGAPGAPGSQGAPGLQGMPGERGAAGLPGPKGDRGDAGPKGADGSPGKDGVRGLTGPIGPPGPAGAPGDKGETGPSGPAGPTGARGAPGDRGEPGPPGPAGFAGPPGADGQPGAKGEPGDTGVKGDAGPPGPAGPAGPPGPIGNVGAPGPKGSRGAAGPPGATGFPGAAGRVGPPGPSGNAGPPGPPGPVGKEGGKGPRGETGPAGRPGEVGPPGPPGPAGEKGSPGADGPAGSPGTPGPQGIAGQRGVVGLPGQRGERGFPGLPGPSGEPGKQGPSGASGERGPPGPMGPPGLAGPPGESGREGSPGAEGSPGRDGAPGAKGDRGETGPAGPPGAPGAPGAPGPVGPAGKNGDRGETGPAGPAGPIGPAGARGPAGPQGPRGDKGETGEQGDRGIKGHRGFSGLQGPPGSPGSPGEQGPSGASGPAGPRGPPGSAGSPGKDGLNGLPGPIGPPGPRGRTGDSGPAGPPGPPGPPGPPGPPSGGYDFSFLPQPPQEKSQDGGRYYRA
rat collagen (acid soluble, type I, rat tail, Upstate 08-115) (rat), sequence (P02466 86-1125, chain 2 of 2, further chain): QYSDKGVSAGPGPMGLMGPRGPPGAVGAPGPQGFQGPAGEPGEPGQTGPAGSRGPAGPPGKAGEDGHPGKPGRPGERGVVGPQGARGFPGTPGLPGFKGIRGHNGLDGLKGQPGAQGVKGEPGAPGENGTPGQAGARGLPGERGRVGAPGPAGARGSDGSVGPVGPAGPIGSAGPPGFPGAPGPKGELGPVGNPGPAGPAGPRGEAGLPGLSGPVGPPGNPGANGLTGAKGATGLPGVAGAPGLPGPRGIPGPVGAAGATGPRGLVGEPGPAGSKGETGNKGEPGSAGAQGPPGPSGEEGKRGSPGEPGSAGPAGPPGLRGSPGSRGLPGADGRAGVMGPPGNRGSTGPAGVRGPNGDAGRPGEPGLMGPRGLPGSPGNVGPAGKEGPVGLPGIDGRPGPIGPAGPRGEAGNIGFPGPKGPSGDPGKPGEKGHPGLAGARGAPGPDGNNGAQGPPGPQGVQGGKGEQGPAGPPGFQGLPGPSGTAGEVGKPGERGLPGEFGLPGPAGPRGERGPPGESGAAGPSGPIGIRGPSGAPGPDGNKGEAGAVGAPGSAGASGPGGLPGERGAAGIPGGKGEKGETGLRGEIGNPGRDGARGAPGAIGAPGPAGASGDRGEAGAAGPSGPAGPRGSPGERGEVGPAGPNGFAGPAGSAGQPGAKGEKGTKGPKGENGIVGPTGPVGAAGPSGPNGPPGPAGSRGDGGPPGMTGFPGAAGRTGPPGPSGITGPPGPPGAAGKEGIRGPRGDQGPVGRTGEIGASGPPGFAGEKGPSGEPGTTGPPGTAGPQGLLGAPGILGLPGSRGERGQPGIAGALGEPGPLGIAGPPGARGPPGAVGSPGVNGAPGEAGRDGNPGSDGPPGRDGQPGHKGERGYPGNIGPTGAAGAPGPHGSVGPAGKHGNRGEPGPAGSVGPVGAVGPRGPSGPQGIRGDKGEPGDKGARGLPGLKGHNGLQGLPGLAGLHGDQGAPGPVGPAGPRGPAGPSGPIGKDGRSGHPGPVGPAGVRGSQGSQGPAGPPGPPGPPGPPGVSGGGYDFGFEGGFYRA

In test [1], KKWHCYTYFPHHYCLYG [Compound ID 802] came in with a Human binding of 57%. In test [2], this molecule registered a Rat binding of 45%.

Consider GAWHCTTRFPHHYCLYG [Compound ID 857], for which the Human binding in test [1] amounted to 67%. The Rat binding in test [2] turned out to be 69%.

In turn, GQWACTTRFPHHYCLYG [Compound ID 876] had a Human binding in test [1] of 48%. The same molecule gave a Rat binding in test [2] of 26%.

Molecule GQWTCSGDEYTWHCAYE [Compound ID 839] gave a Human binding in test [1] of 30%. In test [2], this molecule displayed a Rat binding of 11%.

Molecule GQWHCTTRFPAHYCLYG [Compound ID 865] showed a Human binding in test [1] of 30%. The molecule also displayed a Rat binding in test [2] of 17%.

In test [1], PPQWHCTTRFPHHYCLYG [Compound ID 854] returned a Human binding of 64%. Also, the Rat binding in test [2] amounted to 56%.

GQWHCTTRFPSHYCLYG [Compound ID 880] gave a Human binding in test [1] of 30%. In addition, the Rat binding in test [2] is 0%.

With DWTCRGDEYTWHCNYE [Compound ID 822], in test [1], the Human binding is 47%. The Rat binding in test [2] turned out to be 20%.

For DWTCSRDEYTWHCNYE [Compound ID 821], the Human binding in test [1] is 56%. The molecule also showed a Rat binding in test [2] of 29%.

In test [1], GQWHCATRFPHHYCLYG [Compound ID 877] yielded a Human binding of 58%. Further, the Rat binding in test [2] came to 41%.

Consider DWTCSADEYTWHCNYE [Compound ID 835], for which the Human binding in test [1] came to 17%. This molecule also yielded a Rat binding in test [2] of 9%.

For GQWACSGDEYTWHCNYE [Compound ID 840], the Human binding in test [1] amounted to 15%. For the same molecule, the Rat binding in test [2] was determined as 3%.

DWTCSLDEYTWHCNYE [Compound ID 847]: the Human binding in test [1] came out at 16%. In test [2], this molecule showed a Rat binding of 7%.

DWTCSSDEYTWHCNYE [Compound ID 836] had a Human binding in test [1] of 13%. The molecule further returned a Rat binding in test [2] of 8%.

For the molecule GQWHCTTAFPHHYCLYG [Compound ID 853], the Human binding in test [1] worked out at 66%. Besides, the Rat binding in test [2] stood at 57%.

GQWHCTTRFPHHYCKYG [Compound ID 815]: the Human binding in test [1] amounted to 66%. Moreover, the Rat binding in test [2] was 59%.

As to PWTCSGDEYAWHCNYE [Compound ID 824], in test [1], the Human binding was determined as 12%. For the same molecule, in test [2], the Rat binding turned out to be 0%.

With GQWHCTTDFPHHYCLFG [Compound ID 890], the Human binding in test [1] was found to be 38%. The Rat binding in test [2] stood at 15%.

Take DWTCSYDEYTWHCNYE [Compound ID 829]: the Human binding in test [1] is 20%. For the same molecule, in test [2], the Rat binding is 21%.

In turn, GQWTCSGDAYTWHCAYE [Compound ID 820] had a Human binding in test [1] of 60%. Further, the Rat binding in test [2] was found to be 29%.

In test [1], GQWTCSGDEYTWHCNYA [Compound ID 841] had a Human binding of 51%. The molecule also gave a Rat binding in test [2] of 28%.

GQWTCSGDEYTWACNYE [Compound ID 833]: in test [1], the Human binding turned out to be 13%. In addition, the Rat binding in test [2] amounted to 4%.

{GdDTPA‑thiourea}-GQWHCTTRFPHHYCLYGK(GdDTPA‑thiourea)-NH2 (disulfide 5-14) [Compound ID 807] showed a Human binding in test [1] of 48%. For the same molecule, in test [2], the Rat binding is 45%.

The molecule GQWHCTTRFPHAYCLYG [Compound ID 878] had a Human binding in test [1] of 8%. This molecule came in with a Rat binding in test [2] of 9%.

The molecule GQWSCTTRFPHHYCLYG [Compound ID 870] yielded a Human binding in test [1] of 30%. This molecule yielded a Rat binding in test [2] of 28%.

Take GAWTCSGDEYTWHCNYE [Compound ID 830]: in test [1], the Human binding came to 26%. The Rat binding in test [2] worked out at 11%.

The molecule GQWTCSGDAYTWHCNYE [Compound ID 838] displayed a Human binding in test [1] of 70%. This molecule also returned a Rat binding in test [2] of 61%.

In turn, DWTCSGDEYYWHCNYE [Compound ID 834] displayed a Human binding in test [1] of 22%. Moreover, in test [2], the Rat binding came to 9%.

DWTCSGDEYTWYCNYE [Compound ID 842] had a Human binding in test [1] of 23%. In addition, the Rat binding in test [2] is 9%.

DWTCSGDEYRWHCNYE [Compound ID 845] registered a Human binding in test [1] of 36%. In addition, the Rat binding in test [2] was 10%.

GQWTCSGDEYTWHCNY [Compound ID 823] yielded a Human binding in test [1] of 53%. In addition, the Rat binding in test [2] stood at 28%.

Regarding GQWTCSGDEYAWHCNYE [Compound ID 832], the Human binding in test [1] is 12%. In test [2], this molecule displayed a Rat binding of 4%.

In turn, GQWHCTTRYPHHYCLYG [Compound ID 859] came in with a Human binding in test [1] of 47%. The Rat binding in test [2] amounted to 38%.

GQWHCTNRFPHHYCLYG [Compound ID 897] gave a Human binding in test [1] of 4%. Also, in test [2], the Rat binding is 1%.

Molecule GQWHCTTRFPHHYCAYG [Compound ID 855] returned a Human binding in test [1] of 27%. In test [2], this molecule came in with a Rat binding of 15%.

Turning to GQWTCYGDEYTWYCNYE [Compound ID 826], the Human binding in test [1] is 87%. The Rat binding in test [2] was 71%.

Consider GQWHCTTDYPHHYCLYG [Compound ID 895], for which the Human binding in test [1] was found to be 7%. This molecule showed a Rat binding in test [2] of 0%.
